Experimental findings from US20030185792A1, “Morphogen analogs of bone morphogenic proteins” (Curis, Inc., priority 1996, published 2003) are described below.

Where two headings read alike, the source gives them in different places. Bridge positions count the residues as written; N and C are the ends. Ends that are not written are not given here.

In assay [1] the target is OP-1 receptor of ROS cells (OP-1 receptor-enriched plasma membrane fraction of ROS cells) (rat). As to the kind of experiment: radioligand receptor assay, ROS cell plasma membranes.
Assay [2] has the same target.
Assay [3] shares this target. The source holds these as a separate data set.
For assay [4] the target is unchanged. Kind of assay: binding of ^125I-OP-1 to excess receptor (ROS cell plasma membranes).
Assay [5] shares this target. Kind of assay: equilibrium binding of ^125I-OP-1 to OP-1 receptor-enriched ROS cell plasma membranes.
The target is the same in assay [6]. This is another data set of the same source.
Assay [7] shares this target. The source holds these as a separate data set.
For assay [8] the target is unchanged. This is another data set of the same source.
Assay [9] has the same target. As to the kind of experiment: displacement of ^125I-soluble OP-1 from ROS cell plasma membranes.
The target is the same in assay [10]. The source holds these as a separate data set.
Assay [11] shares this target. This is another data set of the same source.

As to CFRDLGWQDWIIAPC (disulfide 1-15) [Peptide F1-2], the concentration required to inhibit the binding of ^125I-labeled OP-1 in [1] is 179 µM. In addition, in [2], the IC50 (peptide concentration giving 50% inhibition of the cell response to OP-1), ROS cell alkaline phosphatase worked out at 10 µM.

CELYVSFRDLGWQDWIIAPEGYAAYC (disulfide 1-26) [Peptide F1-1] gave an IC50 (peptide concentration giving 50% inhibition of cellular responsiveness to OP-1), ROS cell alkaline phosphatase in [3] of 20 µM.

B1: OP-1 (osteogenic protein-1), mature human OP-1 (ligand)
chain: CKKHELYVSFRDLGWQDWIIAPEGYAAYYCEGECAFPLNSYMNATNHAIVQTLVHFINPETVPKPCCAPTQLNAISVLYFDDSSNVILKKYRNMVVRACGCH
modifications: radio-iodinated (^125I) when used as tracer; unlabeled when used as competitor or in the bioassay
In assay [4], B1 yielded a percent bindability to excess receptor of 30 to 37%. In assay [5], this molecule displayed a Ka of 4.38e+09 M⁻¹ and an average OP-1 binding capacity (pmol/mg protein) of 3.6.

B2: Peptide H-C2 (peptide)
peptide: CCFINPETVCC
modifications: disulfide (positions not given here); not fully specified (bridges); also: double disulfide bonds, pairing of the four Cys not given here
Consider B2, for which the IC50 (peptide concentration giving 50% inhibition of cellular responsiveness to OP-1), ROS cell alkaline phosphatase in assay [6] amounted to 5 µM. Moreover, the concentration at which the binding of ^125I-labeled OP-1 to the receptor was potentiated in assay [1] amounted to 8 µM.

Consider CYFDDSSNVICKKYRS (disulfide 1-11) [Peptide F2-3], for which the ED50 turned out to be 10 µM in assay [1] and 5 µM in [9]. Also, in assay [7], the alkaline phosphatase activity of ROS cells, increase relative to soluble OP-1 alone worked out at 20%. For the same molecule, the OP-1 induced cellular alkaline phosphatase activity of ROS cells, % increase in OP-1 response relative to the absence of peptide in assay [8] was 53%.

CLNAISVLYFDDSSNVILKKYRNMVVRC (disulfide 1-28 (inferred)) [Peptide F2-1] came in with an IC50 (peptide concentration inhibiting the OP-1 induced cell response by 50%), ROS cell alkaline phosphatase in [10] of 8 µM.

For the molecule CYFDDSSNVIC (disulfide 1-11) [Peptide F2-2], the ED50 in assay [1] and in assay [9] was 1 µM throughout. In [7], this molecule gave an alkaline phosphatase activity of ROS cells, increase relative to soluble OP-1 alone of 20%. Besides, in [11], the OP-1 induced cellular alkaline phosphatase activity of ROS cells, potentiation was 20%.
